Among the data in PMC8291048 are stoichiometry N values, retold here.

In this experiment the target is PKM2, endogenous in T24 cells (human (endogenous in T24)) (UniProt P14618). The experiment can be described thus: cross-linking; T24 cells (LV-DPYSL2, siDPYSL2 or negative control) lysed in 0.5% Triton X-100 sodium phosphate buffer pH 7.3; supernatant treated with 1% formaldehyde for 30 min; Western blot for PKM2 monomer, dimer and tetramer. (In general: A western blot detects proteins with antibodies after separation by electrophoresis.)

The term stoichiometry N denotes a count of units in the complex or per binding partner. “PKM2, endogenous in T24 cells (from UniProt P14618 1-531) (enzyme; other documents disagree on this pair)” had a stoichiometry N of 2.
